PMC2756588

Columns and labels:
Assay in all cases: SPOT array
Cyk3, Q07533 = molecular target: T1, Cyk3, Q07533; details: median of control spots 1451
T1 sequence (Q07533 1-83, looked up): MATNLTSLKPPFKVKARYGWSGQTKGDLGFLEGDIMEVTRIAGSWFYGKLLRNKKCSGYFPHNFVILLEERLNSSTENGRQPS

Myo5, Q04439 = molecular target: T2, Myo5, Q04439; details: median of control spots 471
T2 sequence (Q04439 1072-1160, looked up): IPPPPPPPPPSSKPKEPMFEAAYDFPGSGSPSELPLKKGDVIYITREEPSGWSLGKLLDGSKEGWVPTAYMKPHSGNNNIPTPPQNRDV

Sla1-3, P32790 = molecular target: T3, Sla1-3, P32790; details: median of control spots 5475
T3 sequence (P32790 344-424, looked up): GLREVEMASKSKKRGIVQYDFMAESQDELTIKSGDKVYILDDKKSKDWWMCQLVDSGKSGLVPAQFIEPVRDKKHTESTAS

Bzz1-1, P38822 = molecular target: T4, Bzz1-1, P38822; details: median of control spots 4446
T4 sequence (P38822 478-572, looked up): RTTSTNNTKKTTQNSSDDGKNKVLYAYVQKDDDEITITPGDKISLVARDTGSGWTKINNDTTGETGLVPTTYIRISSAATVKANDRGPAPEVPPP

Fus1, P11710 = molecular target: T5, Fus1, P11710; details: median of control spots 1200
T5 sequence (P11710 432-512, looked up): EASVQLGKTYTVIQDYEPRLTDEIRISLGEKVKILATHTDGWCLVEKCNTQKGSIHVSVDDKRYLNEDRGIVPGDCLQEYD

Abp1, P15891 = molecular target: T6, Abp1, P15891; details: median of control spots 935
T6 sequence (P15891 535-592, looked up): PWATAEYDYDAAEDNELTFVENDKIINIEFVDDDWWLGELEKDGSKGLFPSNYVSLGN

Boi1, P38041 = molecular target: T7, Boi1, P38041; details: median of control spots 1162
T7 sequence (P38041 1-86, looked up): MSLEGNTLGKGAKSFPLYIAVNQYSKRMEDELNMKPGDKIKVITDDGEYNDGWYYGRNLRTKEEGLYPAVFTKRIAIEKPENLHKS

Hse1, P38753 = molecular target: T8, Hse1, P38753; details: median of control spots 1727
T8 sequence (P38753 208-285, looked up): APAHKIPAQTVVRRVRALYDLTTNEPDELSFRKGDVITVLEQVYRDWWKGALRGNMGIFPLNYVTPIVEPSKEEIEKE

Bud14, P27637 = molecular target: T9, Bud14, P27637; details: median of control spots 956
T9 sequence (P27637 247-328, looked up): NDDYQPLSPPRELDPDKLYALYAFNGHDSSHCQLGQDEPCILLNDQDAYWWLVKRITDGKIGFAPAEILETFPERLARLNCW

Bbc1, P47068 = molecular target: T10, Bbc1, P47068; details: median of control spots 796
T10 sequence (P47068 1-78, looked up): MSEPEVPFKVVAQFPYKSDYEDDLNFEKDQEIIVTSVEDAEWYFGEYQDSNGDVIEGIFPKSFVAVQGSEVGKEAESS

Boi2, P39969 = molecular target: T11, Boi2, P39969; details: median of control spots 1161
T11 sequence (P39969 32-116, looked up): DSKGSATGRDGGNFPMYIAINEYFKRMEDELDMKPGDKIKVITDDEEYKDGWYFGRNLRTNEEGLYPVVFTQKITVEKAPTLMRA

Lsb1, P53281 = molecular target: T12, Lsb1, P53281; details: median of control spots 388
T12 sequence (P53281 45-122, looked up): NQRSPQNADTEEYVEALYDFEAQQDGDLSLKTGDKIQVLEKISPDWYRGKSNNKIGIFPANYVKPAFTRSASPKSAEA

Pin3, Q06449 = molecular target: T13, Pin3, Q06449; details: median of control spots 2171
T13 sequence (Q06449 53-122, looked up): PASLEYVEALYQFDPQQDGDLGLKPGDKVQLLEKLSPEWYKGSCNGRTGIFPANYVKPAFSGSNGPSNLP

Lsb3, P43603 = molecular target: T14, Lsb3, P43603; details: median of control spots 406
T14 sequence (P43603 385-451, looked up): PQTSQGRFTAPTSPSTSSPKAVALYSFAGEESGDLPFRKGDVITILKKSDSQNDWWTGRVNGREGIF

Bzz1-2, P38822 = molecular target: T15, Bzz1-2, P38822; details: median of control spots 4538
T15 sequence (P38822 568-633, looked up): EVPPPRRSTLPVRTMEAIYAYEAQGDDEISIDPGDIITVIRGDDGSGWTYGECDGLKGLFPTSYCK

Pex13, P80667 = molecular target: T16, Pex13, P80667; details: median of control spots 1341
T16 sequence (P80667 295-386, looked up): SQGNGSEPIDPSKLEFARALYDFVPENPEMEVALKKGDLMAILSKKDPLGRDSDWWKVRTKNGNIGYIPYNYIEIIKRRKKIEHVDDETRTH

Bem1-1, P29366 = details: median of control spots 4282
Sequence of Bem1-1, P29366 (P29366 55-141): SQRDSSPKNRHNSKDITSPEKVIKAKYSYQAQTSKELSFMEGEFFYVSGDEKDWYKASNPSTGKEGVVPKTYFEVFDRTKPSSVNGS

GST = details: median of control spots 978
Myo3, P36006 = details: median of control spots 468
Nbp2, Q12163 = molecular target: T17, Nbp2, Q12163; details: median of control spots 357
T17 sequence (Q12163 103-180, looked up): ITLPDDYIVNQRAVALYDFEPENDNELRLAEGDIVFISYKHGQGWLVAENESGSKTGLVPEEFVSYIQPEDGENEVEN

Lsb4, P32793 = molecular target: T18, Lsb4, P32793; details: median of control spots 397
T18 sequence (P32793 402-468, looked up): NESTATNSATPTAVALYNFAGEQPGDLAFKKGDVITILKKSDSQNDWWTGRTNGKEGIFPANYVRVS

Rvs167, P39743 = details: median of control spots 2707
Sequence of Rvs167, P39743 (P39743 419-482): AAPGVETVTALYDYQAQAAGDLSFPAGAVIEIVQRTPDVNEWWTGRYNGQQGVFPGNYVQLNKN

Hof1, Q05080 = molecular target: T19, Hof1, Q05080; details: median of control spots 4086
T19 sequence (Q05080 590-669, looked up): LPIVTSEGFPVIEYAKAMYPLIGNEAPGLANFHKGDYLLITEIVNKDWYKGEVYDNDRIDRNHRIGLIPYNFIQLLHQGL

Sho1, P40073 = details: median of control spots 1148
Sequence of Sho1, P40073 (P40073 287-367): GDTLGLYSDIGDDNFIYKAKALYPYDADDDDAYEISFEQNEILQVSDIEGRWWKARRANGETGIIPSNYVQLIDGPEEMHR

Cdc25, P04821 = molecular target: T20, Cdc25, P04821; details: median of control spots 969
T20 sequence (P04821 50-136, looked up): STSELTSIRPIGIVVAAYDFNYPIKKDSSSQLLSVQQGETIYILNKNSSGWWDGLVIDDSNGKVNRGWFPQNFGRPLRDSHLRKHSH

Sla1-2, P32790 = molecular target: T21, Sla1-2, P32790; details: median of control spots 712
T21 sequence (P32790 60-140, looked up): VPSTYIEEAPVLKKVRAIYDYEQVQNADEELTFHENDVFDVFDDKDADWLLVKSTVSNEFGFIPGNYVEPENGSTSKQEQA

Bem1-2, P29366 = details: median of control spots 4347
Sequence of Bem1-2, P29366 (P29366 139-227): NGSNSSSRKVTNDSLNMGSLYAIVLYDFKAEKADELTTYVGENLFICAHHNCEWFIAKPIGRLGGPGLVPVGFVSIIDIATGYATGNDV

Row | Binder | SPOT intensity (Cyk3, Q07533) | SPOT intensity (Myo5, Q04439) | SPOT intensity (Sla1-3, P32790) | SPOT intensity (Bzz1-1, P38822) | SPOT intensity (Fus1, P11710) | SPOT intensity (Abp1, P15891) | SPOT intensity (Boi1, P38041) | SPOT intensity (Hse1, P38753) | SPOT intensity (Bud14, P27637) | SPOT intensity (Bbc1, P47068) | SPOT intensity (Boi2, P39969) | SPOT intensity (Lsb1, P53281) | SPOT intensity (Pin3, Q06449) | SPOT intensity (Lsb3, P43603) | SPOT intensity (Bzz1-2, P38822) | SPOT intensity (Pex13, P80667) | SPOT intensity (Bem1-1, P29366) | SPOT intensity (GST) | SPOT intensity (Myo3, P36006) | SPOT intensity (Nbp2, Q12163) | other results
1 | HHKRRPTTIDVPGLT | 0 | 4 | 4 | 0 | 180 | 26 | 2 | 3 | 8 | 2 | 1 | 1 | 28 | 3 | 13 | 18 | 22 | 0 | 7 | 1 | SPOT intensity (Lsb4, P32793): 5; SPOT intensity (Rvs167, P39743): 0; SPOT intensity (Hof1, Q05080): 6; SPOT intensity (Sho1, P40073): 67; SPOT intensity (Cdc25, P04821): 42; SPOT intensity (Sla1-2, P32790): 2; SPOT intensity (Bem1-2, P29366): 28
2 | LTRRFPFLFPFDTRM | 3 | 0 | 129 | 3 | 100 | 18 | 6 | 126 | 21 | 69 | 0 | 0 | 18 | 0 | 3 | 16 | 1 | 0 | 4 | 16 | SPOT intensity (Lsb4, P32793): 4; SPOT intensity (Rvs167, P39743): 0; SPOT intensity (Hof1, Q05080): 116; SPOT intensity (Sho1, P40073): 57; SPOT intensity (Cdc25, P04821): 21; SPOT intensity (Sla1-2, P32790): 1; SPOT intensity (Bem1-2, P29366): 61
3 | NAGIRPKFILALNDE | 1 | 0 | 2 | 2 | 0 | 16 | 8 | 2 | 26 | 24 | 2 | 0 | 3 | 0 | 6 | 10 | 0 | 0 | 0 | 2 | SPOT intensity (Lsb4, P32793): 0; SPOT intensity (Rvs167, P39743): 4; SPOT intensity (Hof1, Q05080): 1; SPOT intensity (Sho1, P40073): 31; SPOT intensity (Cdc25, P04821): 22; SPOT intensity (Sla1-2, P32790): 1; SPOT intensity (Bem1-2, P29366): 0
